The results in this text go back to patent US20050130287A1, “Purifying process of soluble proteins of the l.obliqua bristles through prothrombin activation: process for a partial determination of the amino acids sequence of the prothrombin activator; process for determining the prothrombin activation of fraction II, n-terminal and internal fragments sequences” (priority 2002, published 2005).

One data set deals with prothrombin (UniProt P00734).
The test system of the next data set is T1, Abz-YQTFFNPRTFGSQ-EDDnp.
T1 sequence: YQTFFNPRTFGSQ

The target in data set [1] is purified human fibrinogen (UniProt P02671).

Turning to Factor Xa, the Coagulation Time (S) of fibrinogen, with Ca2+ with prothrombin was determined as 120 s.

With “Lonomia obliqua Prothrombin Activator Protease (Lopap)”, in the data set with prothrombin, the Coagulation Time (S) of fibrinogen, with Ca2+ worked out at 60 s and the Coagulation Time (S) of fibrinogen, without Ca2+ came out at 240 s. Also, in the data set on Abz-YQTFFNPRTFGSQ-EDDnp, the Kcat result is “Kcat 5,32 sec^-1”, the Kcat/Kmapp result is recorded as “Kcat/K mapp 1,2×106 M^-1 sec -1” and the Kmapp result is reported as “Kmapp 4,5 µM”. Also, the “Coagulation Time (S) of fibrinogen, without Factor II” value in data set [1] was “Lopap + / F II - / FG +: >1200”. In addition, in the data set on Factor X, the “Factor X activation, hydrolysis of S-2765” value was “Lopap did not present capacity of activating factor X” and the “Factor X activation, hydrolysis of S-2765 (p-nitroaniline formed)” value was “When Factor X (30 nM) was added to the experiment, the substrate hydrolysis obtained was of 2,6 µM”.
